In one assay the test system is 135TIL. The assay can be described thus: IFN-γ ELISA with bulk 135TIL (IVT-RNA electroporated 135EBV-B cells; peptide titration and truncation). It counts as cell-based, human. To be noted: serially diluted peptides. How it is done:
Due to low transfection efficiency of EBV-B cells, in vitro transcribed (IVT) RNA of 24 TMGs were generated and then electroporated them into 135EBV-B cells, followed by adding 135TIL cells for antigen recognition based on cytokine release assay.
96-well tissue culture plates were coated with phosphate-buffered saline (PBS, GenDEPOT) containing 50 μg/ml poly-L-lysine (Millipore Sigma) at 37° C. 10 min later, the plates were rinsed twice with PBS. Tumor cells or 293-APCs were seeded at 5×10^4/well in the 96-well plate and cultured at 37° C., 5% CO2 for at least 4 h. For plasmid transfection, 250 ng of plasmid DNA were transfected into 293-APCs per well with 0.5 μl of Lipofectamine 2000 (Thermo Fisher Scientific) according to the manufacturer's instructions and incubated at 37° C., in 5% CO2 overnight. For peptide presentation, synthesized peptides (GeneScript) were added to each well at different final concentrations from 10^2 to 10^−4 μM and incubated at 37° C., 5% CO2. The cells transfected with plasmids or pulsed with peptides were washed with TCM twice, and then cocultured with T cells (1×10^5/well). […]
96-well microplate (Greiner Bio-one) was coated with 50 μl of PBS containing anti-human IFN-γ (Thermo Fisher Scientific, primary antibody, 1 μg/ml) per well and incubated at 4° C. overnight. […] The plate was read at OD450 nm. The concentration of IFN-γ was calculated by standard reading. […]
On the technique in general: ELISA stands for enzyme-linked immunosorbent assay.

A further assay concerns T-cell clones of 135TIL. The assay can be described thus: IFN-γ ELISA with tumor-reactive T-cell clones of 135TIL. The following applies: peptide titration; 135-1C1 (ADIPOR2), 135-1E1 (LAGE1b). It is filed as cell-based, human. The text has this:
Thus, immunogenic antigens can be generated from various sources or mechanisms [such as alternative ORFs, noncoding regions (3′ and 5′ UTRs, introns, noncoding RNA)]. […] All other tumor-reactive CD4^+ T-cell clones and CD8^+ T-cell clones recognized the mutation-derived neoantigens. […] To identify these two antigens recognized by these two CD4^+ T-cell clones, an Ii-fusion cDNA library derived from 135 mel tumor cells was constructed using experimental procedures. The Ii-fusion cDNA library pools (approximately 100 cDNA clones per pool) were transfected into 293IMDR3/DP4 or 293IMDR4/DP4 cells, followed by co-culturing with CD4^+ T-cell clones (135-1C1 or 135-1E1). After 2×10^5 cDNA clones, positive cDNA library pools that stimulate two T-cell clones, respectively, were identified based on IFN-γ release by ELISA (FIG. 6B). The positive pools were then transformed into Stbl3™ Escherichia coli, and single bacteria colonies were picked for plasmid DNA isolation. […] The 135-1E1 T cell-reactive cDNA clones encoded the product translated from an alternative reading frame of CTAG2 (LAGE1b) (FIG. 6C and FIG. 7A). […]
T-cell cloning and expansion were performed. […] On day 14, T-cell clones were harvested, counted, tested for tumor reactivity. […]

B1: … MEGAPAGPGGRTAACLSCTSRCLSRRPWKRSWSAGSCPGMPHRSPDQGRF (peptide)
chain: EALAFLMAQGAMLAAQERRVPRAAEVPGAQGQQGPRGREEAPRGVRMAVPLLRRMEGAPAGPGGRTAACLSCTSRCLSRRPWKRSWSAGSCPGMPHRSPDQGRF
notes: 109 aa peptide from frame-shifted reading frame (ORF2) of CTAG2 (LAGE1b)
As for B1, in the assay with 135TIL, the “recognition of titrated peptides by 135TIL (IFN-γ ELISA)” value was “little or no activity”. Further, the “recognition of antigen peptides by specific T-cell clones” value in the assay on T-cell clones of 135TIL was “strongly recognized”.

The values above are taken from US12565680B2, “Cancer neoantigens and their utilities in cancer vaccines and TCR-based cancer immunotherapy” (THE METHODIST HOSPITAL SYSTEM, priority 2018, dated 2026).
